In US20040203128:

Assays:
[1] = test system: GST-2E11 recombinant protein (fusion between a KCNQ2-15b polypeptide comprising exons 13, 14 and 15b and GST)
[2] = test system: GST protein (negative control, from pGEX2TK) [GST: P08515]
Chain of GST protein (negative control, from pGEX2TK) [GST: P08515] (P08515 whole entry): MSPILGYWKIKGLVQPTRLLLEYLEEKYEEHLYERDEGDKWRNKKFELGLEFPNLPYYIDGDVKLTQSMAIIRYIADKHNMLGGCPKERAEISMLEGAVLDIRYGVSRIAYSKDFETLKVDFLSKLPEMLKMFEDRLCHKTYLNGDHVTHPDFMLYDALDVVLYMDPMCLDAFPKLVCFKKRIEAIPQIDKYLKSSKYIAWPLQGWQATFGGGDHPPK

Chain of GST-2E11 recombinant protein (fusion between a KCNQ2-15b polypeptide comprising exons 13, 14 and 15b and GST) (chain, as listed by the source): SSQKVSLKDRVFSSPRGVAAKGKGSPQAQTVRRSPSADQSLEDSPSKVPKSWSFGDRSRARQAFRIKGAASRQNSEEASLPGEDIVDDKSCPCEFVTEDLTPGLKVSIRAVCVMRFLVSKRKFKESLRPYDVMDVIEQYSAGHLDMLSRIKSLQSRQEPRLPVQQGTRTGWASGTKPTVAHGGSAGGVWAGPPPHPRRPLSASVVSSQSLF

Row | Substance | in vitro phosphorylation, 32P autoradiography after SDS-PAGE [1] | in vitro phosphorylation, 32P autoradiography after SDS-PAGE [2] | in vitro dephosphorylation, loss of the 32P band, with or without okadaic acid [1]
1 | Protein Kinase A Catalytic Subunit (PKA from bovine heart, Sigma) | Thus the GST-2E11 protein is phosphorylated by GSK-3β and PKA in vitro | No bands appeared in the three lines corresponding to the negative controls | 
2 | PP2A phosphatase in whole cell extracts of the human glioblastoma, astrocytoma cell line HTB-14 |  |  | In the line loaded with GST-2E11 fusion proteins incubated in the presence of HTB-14 cell extracts, the band had an extremely weaker intensity
3 | recombinant GSK-3β kinase (New England Biolabs) | Thus the GST-2E11 protein is phosphorylated by GSK-3β and PKA in vitro | No bands appeared in the three lines corresponding to the negative controls | 
